Laboratory results reported in patent US20260217797A1.
Read-outs that look alike come from different tables or passages of the source.

Legend:
[1] = target: SARS-CoV-2 wild type spike protein (on reporter virus particles) (SARS-CoV-2) (UniProt P0DTC2); assay: cell-based or functional assay
[2] = target: SARS-CoV-2 wild type spike protein (on reporter virus particles) (SARS-CoV-2) (UniProt P0DTC2); assay: cell-based or functional assay; remark: listed apart in the source
[3] = target: SARS-CoV-2 WT RBD (SARS-CoV-2) (UniProt P0DTC2); assay: Octet BLI single point, monovalent
[4] = target: Bat coronavirus WIV16 spike protein (Bat coronavirus WIV16); assay: cell-based or functional assay
[5] = target: SARS-CoV-1 spike protein (SARS-CoV-1) (UniProt P59594); assay: cell-based or functional assay

| Substance | PSV IC50 [1] [µg/mL] | WT PsV IC50 [1] [nM] | PsV neutralization IC50 [2] [µg/mL] | PsV neutralization IC90 [2] [µg/mL] | Kd [3] [nM] | PsV neutralization IC50 [4] [µg/mL] | PsV neutralization IC90 [4] [µg/mL] | PsV neutralization IC50 [5] [µg/mL] | PsV neutralization IC90 [5] [µg/mL] | PsV neutralization IC50 [1] [µg/mL] | PsV neutralization IC90 [1] [µg/mL] | SARS2 IC50 [1] [nM] |
| --- | --- | --- | --- | --- | --- | --- | --- | --- | --- | --- | --- | --- |
| RGN10987 (antibody) | 0.031 | 0.292 | 0.007 | 0.078 | 9.13 |  |  |  |  |  |  |  |
| S309 (antibody) |  | 6.56 | 0.009 | 0.051 |  | 0.016 | 0.305 | 0.01 | 0.043 |  |  |  |
| RGN10933 (antibody) | 0.028 | 0.185 | 0.002 | 0.024 | 3.62 |  |  |  |  | 0.0067 | 0.081 | 0.022 |
